Measurements taken from patent US20060292672.

Target: T1, rhPTH(1-34)Gly35-OH, P01270
T1 chain: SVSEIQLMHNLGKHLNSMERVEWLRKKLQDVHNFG

B1: peptidylglycine alpha-amidating monooxygenase expressed by cell line UGL 73-26/M (protein)
chain: FRSPLSVFKRFKETTRSFSNECLGTIGPVTPLDASDFALDIRMPGVTPKESDTYFCMSMRLPVDEEAFVIDFKPRASMDTVHHMLLFGCNMPSSTGSYWFCDEGTCTDKANILYAWARNAPPTRLPKGVGFRVGGETGSKYFVLQVHYGDISAFRDNHKDCSGVSVHLTRVPQPLIAGMYLMMSVDTVIPPGEKVVNADISCQYKMYPMHVFAYRVHTHHLGKVVSGYRVRNGQWTLIGRQNPQLPQAFYPVEHPVDVTFGDILAARCVFTGEGRTEATHIGGTSSDEMCNLYIMYYMEAKYALSFMTCTKNVAPDMFRTIPAEANIPIPVKPDMVMMHGHHKEAENKEKSALMQQPKQGEEEVLEQDFHVEEELDWPGVYLLPGQVSGVALDSKNNLVIFHRGDHVWDGNSFDSKFVYQQRGLGPIEEDTILVIDPNNAEILQSSGKNLFYLPHGLSIDTDGNYWVTDVALHQVFKLDPHSKEGPLLILGRSMQPGSDQNHFCQPTDVAVEPSTGAVFVSDGYCNSRIVQFSPSGKFVTQWGEESSGSSPRPGQFSVPHSLALVPHLDQLCVADRENGRIQCFKTDTKEFVREIKHASFGRNVFAISYIPGFLFAVNGKPYFGDQEPVQGFVMNFSSGEIIDVFKPVRKHFDMPHDIVASEDGTVYIGDAHTNTVWKFTLTEKMEHRSV
Question: B1 was tested. Which “overall yield of rhPTH(1-34)-NH2 from enzymatic amidation (preparative reaction followed by CEX and RP purification)” value did it give?
Answer: yielding 11.8 grams (95% overall yield from amidation) of rhPTH(1-34)-NH2
